# Reference: patent publication US20200332015A1 (NAMAB THERAPEUTICS, published 2020)
# Several values for one entry are separate records, joined by “and”; a condition that tells them apart may be missing. Equal entries are not always repeated. Where two headings read alike, the source gives them in different places.
# T1: mouse Fc-tagged mouse CD137 (R&D Systems, cat. 937-4B-050) (mouse, UniProt P20334 24-187)
# T1 construct: also called mouse CD137-Fc chimeric protein
# T1 sequence (looked up): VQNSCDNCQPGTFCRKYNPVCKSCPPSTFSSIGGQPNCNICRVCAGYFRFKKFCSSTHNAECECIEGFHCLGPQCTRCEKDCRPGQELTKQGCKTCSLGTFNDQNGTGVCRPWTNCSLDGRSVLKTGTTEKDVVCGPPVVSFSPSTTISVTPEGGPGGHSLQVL
# Key:
# [1] = molecular target: T2, recombinant human CD137 extracellular domain (Peprotech, cat. 310-15-1MG) (human, UniProt Q07011 24-186); test: SPR T200, Morrison format captured, ECD analyte
# T2 construct: also called human CD137 ECD; CD137 ECD
# Protocol: (§1) Affinity to PDL1 of the different species was determined by SPR measurements using a Biacore T200 device (GE Healthcare). An antibody specific for the Fc region of human IgGs was immobilized on a sensor chip (CM5 sensor chip, GE Healthcare) by amine-coupling. For all formats, with the exception of the Fc containing Morrison formats, PDL1-Fc chimeric protein from different species were captured by the immobilized antibody. Three-fold serial dilutions of the molecules specific for PDL1 (0.12-90 nM) were injected into the flow cells for three minutes and dissociation was monitored for 10 minutes. After each injection cycle, surfaces were regenerated with one injection of a 3 M MgCl₂ solution. The apparent dissociation (kd) and association (kₐ) rate constants and the apparent dissociation equilibrium constant (KD) were calculated using one-to-one Langmuir binding model. Affinity to CD137 of the different species was determined using the identical setup as for PDL1 with the exception that CD137-Fc chimeric proteins from different species were captured by the immobilized antibody.
# (§2) The Fc containing formats were directly captured by the antibody specific for the Fc region of human IgGs. Two-fold serial dilutions of PDL1 extracellular domain or CD137 extracellular domain ranging from 90 to 0.35 nM were tested for binding to the IgG captured on the biosensor chip. After each injection cycle, surfaces were regenerated with one injection of a 3 M MgCl2 solution.
# [2] = molecular target: T3, human PDL1 extracellular domain (human, UniProt Q9NZQ7 19-238); test: SPR T200, Morrison format captured, ECD analyte
# T3 construct: extracellular domain; Analyte for the Fc containing Morrison formats
# Protocol: as §1, §2
# [3] = molecular target: T4, human CD137 expressed on Jurkat cells (human, UniProt Q07011 24-255); test: cell-based or functional assay
# [4] = molecular target: T4, human CD137 expressed on Jurkat cells; test: cell-based or functional assay; remark: listed apart in the source
# [5] = molecular target: T4, human CD137 expressed on Jurkat cells; test: cell-based or functional assay; remark: listed apart in the source
# [6] = molecular target: T4, human CD137 expressed on Jurkat cells; test: cell-based or functional assay; remark: listed apart in the source
# [7] = molecular target: T4, human CD137 expressed on Jurkat cells; test: cell-based or functional assay; remark: listed apart in the source
# [8] = molecular target: T4, human CD137 expressed on Jurkat cells; test: cell-based or functional assay; remark: listed apart in the source
# [9] = molecular target: T4, human CD137 expressed on Jurkat cells; test: cell-based or functional assay; remark: listed apart in the source
# [10] = molecular target: T4, human CD137 expressed on Jurkat cells; test: cell-based or functional assay; remark: listed apart in the source
# [11] = molecular target: T5, cynomolgus monkey Fc-tagged CD137 (R&D Systems, cat. 9324-4B-100) (cynomolgus monkey, UniProt A9YYE7 24-186); test: SPR T200, antigen-Fc captured, molecule as analyte
# T5 construct: also called cynomolgus CD137-Fc chimeric protein
# Summary of the method: (§3)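 Biacore T200: anti-Fc antibody amine-coupled on CM5 chip captures chimeras of different species. Molecules injected as three-fold dilutions (0.12-90 nM) for 3 min, dissociation 10 min, 3 M MgCl₂ regeneration. Apparent ka, kd and KD from 1:1 Langmuir fit.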
# [12] = molecular target: T1, mouse Fc-tagged mouse CD137 (R&D …); test: SPR T200, antigen-Fc captured, molecule as analyte
# Summary of the method: as §3
# [13] = molecular target: human PDL1-Fc chimeric protein (human, UniProt Q9NZQ7 19-238, limits assumed); test: SPR T200, antigen-Fc captured, molecule as analyte
# Summary of the method: as §3
# [14] = molecular target: T6, Fc tagged human CD137 (R&D Systems, cat. 838-4B-100) (human, UniProt Q07011 24-186); test: SPR T200, antigen-Fc captured, molecule as analyte
# T6 construct: also called CD137 Fc chimera; human CD137-Fc chimeric protein
# Summary of the method: as §3
# T5 sequence (A9YYE7 entry or part of it): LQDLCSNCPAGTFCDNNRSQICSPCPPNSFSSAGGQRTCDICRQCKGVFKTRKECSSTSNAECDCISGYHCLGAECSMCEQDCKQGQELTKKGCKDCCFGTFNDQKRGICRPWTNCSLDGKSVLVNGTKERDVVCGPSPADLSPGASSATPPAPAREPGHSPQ
binder,measurement,setting,value
"PRO1060 (33-03-G02 IgG1 HC with 38_02_A04 sc01 scFv, PDL1/CD137(scFv) silent Morrison) (bispecific antibody, IgG1 with scFv fused to the heavy chain; called bivalent; also called Morrison-H) light: DIQMTQSPSSLSASVGDRVTITCQASQSINDYLAWYQQKPGKAPKLLIYKASTLASGVPSRFSGSGSGTDFTLTISSLQPEDFATYYCQQGYIITDIDNVFGTGTKVTVLGTVAAPSVFIFPPSDEQLKSGTASVVCLLNNFYPREAKVQWKVDNALQSGNSQESVTEQDSKDSTYSLSSTLTLSKADYEKHKVYACEVTHQGLSSPVTKSFNRGEC heavy: QVQLQESGPGLVKPSETLSLTCKVSGFSFSSGYDMCWIRQPPGKGLEWIGCVVAGSVDITYYASWAKGRVTISVDSSKNQFSLKLSSVTAADTAVYYCARKDAYSDAFNLWGQGTLVTVSSASTKGPSVFPLAPSSKSTSGGTAALGCLVKDYFPEPVTVSWNSGALTSGVHTFPAVLQSSGLYSLSSVVTVPSSSLGTQTYICNVNHKPSNTKVDKRVEPKSCDKTHTCPPCPAPEAAGGPSVFLFPPKPKDTLMISRTPEVTCVVVDVSHEDPEVKFNWYVDGVEVHNAKTKPREEQYNSTYRVVSVLTVLHQDWLNGKEYKCKVSNKALGAPIEKTISKAKGQPREPQVYTLPPSREEMTKNQVSLTCLVKGFYPSDIAVEWESNGQPENNYKTTPPVLDSDGSFFLYSKLTVDKSRWQQGNVFSCSVMHEALHNHYTQKSLSLSPGKGGGGSGGGGSIQMTQSPSSLSASVGDRVTITCQASQSINNVLAWYQQKPGKAPKLLIYRASTLASGVPSRFSGSGSGTDFTLTISSLQPEDFATYYCQSSYGNYGDFGTGTKVTVLGGGGGSGGGGSGGGGSGGGGSQVQLQESGPGLVKPSETLSLTCKVSGFSFSNSYWICWIRQPPGKGLEWIGCTFVGSSDSTYYANWAKGRVTISVDSSKNQFSLKLSSVTAADTAVYYCARHPSDAVYGYANNLWGQGTLVTVSS",Kd,[1],1.3 nM
same,koff,[1],0.00039 s⁻¹
same,kon,[1],300000 M⁻¹ s⁻¹
same,Kd,[2],0.036 nM
same,koff,[2],4.6e-05 s⁻¹
same,kon,[2],1.3e+06 M⁻¹ s⁻¹
same,"EC50 NFkB-luciferase, CHO-PDL1 cells, 24 h",[3],0.0808 µg/mL
same,"max. activation, HCC827 +IFNg, 24h",[4],97%
same,"max. activation, NF-kB reporter gene, CHO-PD-L1, 24h",[4],144%
same,"rel. IC50 (urelumab/test), HCC827 +IFNg, 24h",[4],3.01 ratio
same,"rel. IC50 (urelumab/test), HCC827 -IFNg, 24h",[4],3.5 ratio
same,"rel. IC50 (urelumab/test), NF-kB reporter gene, CHO-PD-L1, 24h",[4],0.58 ratio
same,"EC50 NFkB-luciferase, HCC827 with IFNy stimulation",[5],0.0175 µg/mL
same,"EC50 NFkB-luciferase, HCC827 without IFNy stimulation",[5],0.0136 µg/mL
same,"EC50 NFkB-luciferase, CHO-PDL1 cells, 6 h",[6],0.0564 µg/mL
"urelumab (antibody, V domains shown) VH: QVQLQQWGAGLLKPSETLSLTCAVYGGSFSGYYWSWIRQSPEKGLEWIGEINHGGYVTYNPSLESRVTISVDTSKNQFSLKLSSVTAADTAVYYCARDYGPGNYDWYFDLWGRGTLVTVSS VL: EIVLTQSPATLSLSPGERATLSCRASQSVSSYLAWYQQKPGQAPRLLIYDASNRATGIPARFSGSGSGTDFTLTISSLEPEDFAVYYCQQRSNWPPALTFGGGTKVEIK","EC50 NFkB-luciferase, HCC827 without IFNy",[7],0.212 µg/mL and 0.11 µg/mL and 0.112 µg/mL
same,"EC50 NFkB-luciferase, CHO-PDL1 cells, 24 h",[3],0.0466 µg/mL
same,"EC50 NFkB-luciferase, CHO-PDL1 cells, 24 h, + HBA (so in the source)",[3],0.0782 µg/mL
same,"Top of curve fit, NFkB-luciferase, CHO-PDL1 cells, 24 h, + HBA (so in the source)",[3],90.5
same,"EC50 NFkB-luciferase, CHO-PDL1 cells",[8],0.0791 µg/mL
same,"EC50 NFkB-luciferase, HCC827 with IFNy",[9],0.114 µg/mL and 0.145 µg/mL and 0.108 µg/mL
same,"EC50 NFkB-luciferase, HCC827 with IFNy stimulation",[5],0.0528 µg/mL
same,"EC50 NFkB-luciferase, HCC827 without IFNy stimulation",[5],0.0475 µg/mL
same,"EC50 NFkB-luciferase, CHO-PDL1 cells, 6 h",[6],0.0565 µg/mL
same,"EC50 NFkB-luciferase, CHO-PDL1 cells, 6 h, + HSA",[6],0.0777 µg/mL
same,"Top of curve fit, NFkB-luciferase, CHO-PDL1 cells, 6 h, + HSA",[6],106
same,"EC50 NFkB-luciferase, CHO-PDL1 cells",[10],0.0865 µg/mL and 0.0795 µg/mL and 0.104 µg/mL
"PRO1059 (33-03-G02 IgG1 LC with 38_02_A04 sc01 scFv, PDL1/CD137(scFv) silent Morrison) (bispecific antibody, IgG1 with scFv fused to the light chain; also called Morrison-L) light: DIQMTQSPSSLSASVGDRVTITCQASQSINDYLAWYQQKPGKAPKLLIYKASTLASGVPSRFSGSGSGTDFTLTISSLQPEDFATYYCQQGYIITDIDNVFGTGTKVTVLGTVAAPSVFIFPPSDEQLKSGTASVVCLLNNFYPREAKVQWKVDNALQSGNSQESVTEQDSKDSTYSLSSTLTLSKADYEKHKVYACEVTHQGLSSPVTKSFNRGECGGGGSGGGGSIQMTQSPSSLSASVGDRVTITCQASQSINNVLAWYQQKPGKAPKLLIYRASTLASGVPSRFSGSGSGTDFTLTISSLQPEDFATYYCQSSYGNYGDFGTGTKVTVLGGGGGSGGGGSGGGGSGGGGSQVQLQESGPGLVKPSETLSLTCKVSGFSFSNSYWICWIRQPPGKGLEWIGCTFVGSSDSTYYANWAKGRVTISVDSSKNQFSLKLSSVTAADTAVYYCARHPSDAVYGYANNLWGQGTLVTVSS heavy: QVQLQESGPGLVKPSETLSLTCKVSGFSFSSGYDMCWIRQPPGKGLEWIGCVVAGSVDITYYASWAKGRVTISVDSSKNQFSLKLSSVTAADTAVYYCARKDAYSDAFNLWGQGTLVTVSSASTKGPSVFPLAPSSKSTSGGTAALGCLVKDYFPEPVTVSWNSGALTSGVHTFPAVLQSSGLYSLSSVVTVPSSSLGTQTYICNVNHKPSNTKVDKRVEPKSCDKTHTCPPCPAPEAAGGPSVFLFPPKPKDTLMISRTPEVTCVVVDVSHEDPEVKFNWYVDGVEVHNAKTKPREEQYNSTYRVVSVLTVLHQDWLNGKEYKCKVSNKALGAPIEKTISKAKGQPREPQVYTLPPSREEMTKNQVSLTCLVKGFYPSDIAVEWESNGQPENNYKTTPPVLDSDGSFFLYSKLTVDKSRWQQGNVFSCSVMHEALHNHYTQKSLSLSPGK",Kd,[1],2.3 nM
same,koff,[1],0.00042 s⁻¹
same,kon,[1],180000 M⁻¹ s⁻¹
same,Kd,[2],0.056 nM
same,koff,[2],6.5e-05 s⁻¹
same,kon,[2],1.2e+06 M⁻¹ s⁻¹
same,"max. activation, NF-kB reporter gene, CHO-PD-L1, 24h",[4],189%
same,"rel. IC50 (urelumab/test), NF-kB reporter gene, CHO-PD-L1, 24h",[4],0.09 ratio
"PRO951 (38-27-C05 sc02 scDb-i/33-03-G02 sc01 scDb-o) (bispecific antibody, scDb, PDL1 x CD137) DIQMTQSPSSLSASVGDRVTITCQASQSINDYLAWYQQKPGKAPKLLIYKASTLASGVPSRFSGSGSGTDFTLTISSLQPEDFATYYCQQGYIITDIDNVFGTGTKVTVLGGGGGSEVQLVESGGGLVQPGGSLRLSCAASGFSFNNDYDMCWVRQAPGKGLEWIGCIDTGDGSTYYASWAKGRFTISRDNSKNTVYLQMNSLRAEDTAVYYCAREAASSSGYGMGYFDLWGQGTLVTVSSGGGGSGGGGSGGGGSGGGGSIQMTQSPSSLSASVGDRVTITCQSSQSVYDNNWLAWYQQKPGKAPKLLIYRASNLASGVPSRFSGSGSGTDFTLTISSLQPEDFATYYCQGTYLSSNWYWAFGTGTKVTVLGGGGGSQVQLQESGPGLVKPSETLSLTCKVSGFSFSSGYDMCWIRQPPGKGLEWIGCVVAGSVDITYYASWAKGRVTISVDSSKNQFSLKLSSVTAADTAVYYCARKDAYSDAFNLWGQGTLVTVSS","EC50 NFkB-luciferase, CHO-PDL1 cells",[8],0.0337 µg/mL
same,"max. activation, NF-kB reporter gene, CHO-PD-L1",[4],432%
same,"rel. IC50 (urelumab/test), NF-kB reporter gene, CHO-PD-L1",[4],2.35 ratio
same,Kd,[11],6.9 nM
same,koff,[11],0.01 s⁻¹
same,kon,[11],1.5e+06 M⁻¹ s⁻¹
same,binding result,[12],no binding (tested: 0.12-90 nM)
same,Kd,[13],0.07 nM
same,koff,[13],0.00015 s⁻¹
same,kon,[13],2.2e+06 M⁻¹ s⁻¹
same,Kd,[14],4.2 nM
same,koff,[14],0.0063 s⁻¹
same,kon,[14],1.5e+06 M⁻¹ s⁻¹
